From patent US20240026407A1, “MODIFICATION OF SAPONINS” (GLAXOSMITHKLINE BIOLOGICALS SA, priority 2020, published 2024)

Experiments:
Format in all cases: biochemical, Quillaja saponaria
[1] = Experiment 6-1: screening of rhamnosidases for derhamnosylation of saponins in treated bark extract (2%), QS-17 2296 to QS-18 2150 (PAR %); conditions: TBE 2%, pH 7.5, 30 degC, 18 h; TIC peak area ratio percent of rhamnosylated starting saponin to derhamnosylated product, LCMS/MS; negative controls 4.876, 5.225
[2] = Experiment 6-1: screening of rhamnosidases for derhamnosylation of saponins in treated bark extract (2%), QS-17 2310 to QS-18 2164 (PAR %); conditions: TBE 2%, pH 7.5, 30 degC, 18 h; TIC peak area ratio percent, LCMS/MS; negative controls 3.061, 2.429
[3] = Experiment 6-1: screening of rhamnosidases for derhamnosylation of saponins in treated bark extract (2%), desglucosyl-QS-17 2134 to QS-21 1988 (PAR %); conditions: TBE 2%, pH 7.5, 30 degC, 18 h; TIC peak area ratio percent, LCMS/MS; negative controls 2.719, 2.158
[4] = Experiment 6-1: specificity of rhamnosidases towards other rhamnose residues (C3 saccharide rhamnose, C28 saccharide rhamnose); conditions: TBE 2%, pH 7.5, 30 degC, 18 h; LCMS/MS; negative controls 0.18, 0.17

| Molecule | QS-17 (PAR %) [1] | Peak57 (PAR %) [2] | Peak75 (PAR %) [3] | ratio PP/QS-21 [4] |
| --- | --- | --- | --- | --- |
| 1033 (protein, listed as Pedobacter heparinus) MNRRTFIQNTSIATSSLVFFNQFESLAFSKSDQDLYTLFKNPPANYRPFVRWWWNGNKIQKKELFRQLTLLKDAGIGGVEINPISFPNKADDMGIKSLRWLSDEWIDLVKDTCNEARSKDMTCDLIVGSGWPFGSEDLKEEERAEVVLVFAEKVEGPMVYETTKYSIYNAIDPQVTDKNPLRSPILMDLKLSQDPIAAIATTIDFSNQINNDIIKIDVPEGKHCIYALVKFKSFAKVINGAPGASGSILNHLNKQAVESYLNRMSSTMQDRIGPLSNYLRALFTDSMELEGCNWCEDFPAEFKKRCGYDLMPYLPFILFKVGRLGAVVDEDYGAEKSQDLNVILKKVRFDFEYTKALLLRERFTEVYLKWCKELKVKSRAQAYGRGFFPLETSLGYDIPEGESWTTNYLRHKLGEEMSDEDYRRGRGYTMINKYVSSAAHLTGKRIVSCEEMTNTYLVFNATLELLKLGSDQSIMSGITHSVWHGFNYSPKEVAFPGWVQYGSYYSEKNNWWPYFKYLNDYKARLSSQLQHGDYYTDIAILPANYDLWANNGVQTDPFPEKLNVPYTSLLWEAINKNGGAADYITDMILTQSEIIKGKIVYGKKSFGVLFLPGVESLSELAMQKIEQFVKTGGKVICIEKYPAKGLGFLNWEQKDATIKDAVARLKQQFSDRFIFLDKPADNKFLEWYTPLIATHQLPSYLNISTPNRYFMQIRSVRDDGTEMFFFQNAHRYDAYQARVVFDRKKIKGKYAWVWDLDSGERFRLTLTNDTTFEYNFGPTESLLIIFDQIKNGEKWKPLLSSGKSTLNLDKVWDLELRNSLDGSVKHVNLPQVIDMKDDKELVNFTGTAIYRKKITLTDTKNLVINLGKVYGITQLYINKVQVGIKWYGKRFFDISKYVQTGTNDIEIHLVTTMGNYMKTLTDNEIAQYWVNRKGREQEIQSMGIVGPIEIYQQN | 4.485% | 2.927% | 2.521% | 0.16 |
| 1019 (protein, Bacteroides thetaiotaomicron) MNKKQLILLCMLAAGGSIQAQQWPDAPAEARPGTRWWWLGSAVDEKNLTYNLEEYARAGMGAVEITPIYGVQGNDANDIQFLSPRWMEVLKHTQAEGKRTGIEIDMNTGTGWPFGGPEVSIEDAASKAIFQTYDIEGGQEIVQDINVTDKKQQPYSVLSRVMAYDENGRCINLTSHVRKDKLVWKAPAGKWKVIALYNSKTRQKVKRAAPGGEGYVMNHLSKTAVKNYLSRFNRAFKSSKTSYPHTFFNDSYEVYQADWTEDFLDQFARRRGYKLEEHFPEFLDENRPEISRRIVSDYRETISDLLLENFTRQWTDWAHKNGSITRNQAHGSPANLIDVYAAVDIPECEGFGLSQFHIKGLRQDSLTKKNDSDLSMLKYASSAAHIAGKPYTSTETFTWLTEHFRTSLSQCKPDMDLMFVSGINHMFFHGTPYSPKEAEWPGWLFYASINMNPTNSIWHDAPSFFDYITRCQSFLQMGKPDNDFLIYLPVYDMWDEQPGRLLLFSIHHMAKLAPKFIDAIHRINNSGYDGDYISDNFIRSTRFKDGQLITSGGTGYKALVVPAAHLMPNDVLAHLLKLAQQGATIVFLENYPTDVPGYGQLEQKRKTYQQTLQKLPSVSFSETTVTPVGKGKIITGTDYARTLASCNIPQEEMKTKFGLQAIRRVNDSGHHYFISSLQDKGVNDWVTLGTKAKAAALFNPMTGECGEAKVRQAGEQTQVYLQLKSGESVILQTYQQPLQAARPWKYIQEQPFSLSLDHGWKLHFAESEPKIKGTFDIDRPCSWTGIDHPAAKINMGSGVYSLDIELPALQADDWVLDLGDVRESARVRINGQEAGCAWAVPYQLRVGHLLKSGKNHIEIEVTNLPANRISELDRQGVQWRKFKEINIVDLNYRPANYGHWAPMPSGLNSEVRLIPVDYLSFKTH | 4.626% | 2.390% | 2.982% | 0.15 |
| 1071 (protein, listed as Opitutus terrae) MKRMKIMKRRIDIFRSSLFLGAYPAMAAPFVQRSAWIWSAEGTHAAPAPESASPSHYQVRLFRRVFLLENGGREGRIAVSADSRYVLYCNGALIGRGPARGDVHHQFYDTYELAPYLHRGANVLAALVLDMSHVAHRPAALGAPGGVMTYAGGFLLEGGVVDLNDRMEILDTGAAGWKVTVDRSYRFQNDGTRFEGYHGYFEHRVSAEAPADWTAASFDDSAWPDATVLYRAERLENRRDPASPYGLVARMIPPMEVGRVARFAAGVLPGGGKPGAEWKRLAAGKGAVTIPARSTVRIILDAGRMTTAYPLVQTDGGPGAHIRLTYAEALRLPWSTVGARMLGRPQSLANLASHFADESSGWTFDARGHVTGWSDRWEPAGRPREVFEPWHWRSFRFVELEIVTAEEPMELTDLGYRFTAYPYRVEAEFACSDPRLERIWQTALHTMRLCSHETFVDCPHYEQMQYAGDTMITSKLAMLSTGDYALSRQALLQFDWSRIPDGLTQSRYPSRLLQVIPSWSLHWITSIRDYACCSGDLQTVNEVLPGVRVVLDWYRRHADPSGLPSRLPYWNITDWCSWWPRGVVPGADEGPTCIISAQFVQALAEAADLHGWVGQRHEQRRLATEVKTLRGVLRRRFWSRDEGLFFDKPGGPEVSQYGNAWAIVCGAATAADRKRMLARFPADPLLAPGSFFCWHAVFRALEAAGAYDRLPEFLGPWHEMVEAGLDTFVEENSYWRSLCHAWSAHPALEFLAGVLGVKALEPGFATVRVTPHRCGLREARGQVCTPRGPITVAWTWEKGRFRIRVTAPRELQVEIGLPDGSDHRMTHGRFETEVVIHEA | 4.587% | 2.650% | 2.574% | 0.17 |
| 1059 (protein, listed as Solibacter usitatus) MVEMSVPVLRSSAFIALLAGLALGADPANITELQRGFQHPPDEARIMVRWWWFGPAVTKPELEREMRLMKQGGIGGFEVQPTYALELDNAEKGIKNLPYMSPEFLEALRFTGEKAKELGLRMDLTLGSGWPFGGPHIPVELASPRLRVARAAVTAGAAAINVPELQPSEKLIAAFLGNQELEAAGSQSFRLPPSAAGQVTFFISSHTRQTVKRPAVGAEGWVLNHYDRAAIEQHFKSVGEPMLNALAKTPPAAIFSDSLEVYNSDWTGDFLAQFAKRRGYDLKPYLPALAGDIGEKTGAIRNDWGQTLSELAEENYLKPLTAWAHQHNTKFRSQTYGIPPVTLSSYSLVDLPEGEGTQWRHFSSTRWATSASHLYNRPVTSSETWTWLHSPVFRATPLDMKAEADLHFLQGVNQLVAHGWPYSPPSVGEPGWRFYAAAVFNEHNPWWIVMPDIATYMQRVSWMLRQGKPVNDVAVYLPTHDAFAGFTLGRDSVNQAMEGILGPKLVPTILDAGYGFDFIDDGAIAAGGVPHKILIVPGAERIPLATYQKIEEYRRDGGKVFFTKRLPSLAPGLREEGDTAKIRELSAKHVVTGDDGLAGALHDALPADFTAPPEIGVVHRKLAYADVYFLANTSNHAVKGAAKFRASGMPAAWWDPVTGKSSKADLNLELAPYESRVLVFSRAGGAVMGQAMSLPEVDISSDWTITFPGEQPVKMATLRPWTDEENRKFYSGTATYERKVTATPAMAAAHVFLNFGEGTVADPASERRAPSGMRAWLESPVREAAQVFVNGKPAGAVWKAPYEVDVTGLLQAGENSIRVVVANLALNVLAKGPLPDYKELTAKYGEKFQAQDMQSVRALPGGMMGPVKLVSK | 4.613% | 2.956% | 2.534% | 0.16 |
| 1067 (protein, listed as Pedobacter heparinus) MKLIPNFLKTSMQQTVLLLLLALVCCADTVLAQQSGKASWIWYPGDLDIWVSNKMQNRRTERGAFLPPFWKMDSHYVLVEFHKEFNLANAEEVNLYVEGQYNVKIDGQAFSGYPKKITVPAGKHKLSLKVYGQDKVPAILVQGKTVVSDESWLATFEDKEWIDASGKASDKSGTTFVSAASWNLTDPLSPPSRFKLATTPMAAVKTDKVNNGFVADFGKETFGFIKLHGLKGKGKLHIYYGESKEEALSADHCETLDLLEIDLKGKQDSVIELSKAFRYVNCQPEGNVTLDKVSMLYEYAPVTEKGNFRCSDEQINKIYDISKYTFHLNTREFFIDGIKRDRWVWSGDAYQSYLMNYYSFNESPIVKRTLLAQRGKDPVTAHINTIMDYSFYWFLGIYDYYQYSGDQKFVQDIYPRMKSLMDYVLGRRNKDGLLEWMPGDWIFIDWADKLSKDGEVSFEQLLFCRSLETMALCADMAKDTEAAANYKKLAADLKARIFKLYWDENKHALVHSRINGKPTDNVTRYANMFGIFFDYFSPSQKQEVKQHVLMNNKINKITTPYMRFYELEALCAMGEQSYVLKQMKDYWGGMLELGATSFWEEYNRDKKGVEHLAMYGRPFGKSLCHAWGASPIYLLGKYYLGVKPLSAGYETYVVEPSLGGLEWMEGKVPTPSGEISLYCSKKEIRIKADEGSGVLRFKSVSKPVVKGGKVVEVGKRTYELKLMKGVQYTVNYQK | 4.455% | 2.852% | 2.231% | 0.17 |
| 1064 (protein, listed as Lachnospiraceae bacterium) MEIYNLKINGMVNPIGFEYKEIICSWKVRKTEDKQQKKARISISADQEFHEIVFQIEGEELDSTGTLADFKIKPYTTYYWKVYVEGENGEYGTSETAFFETAKMCHKWKADWIGTDKEDTFHPVFQKKFYLRDGIKKARLYCCGLGVYEGYINGKKAGNDYLAPFINDYKDNLQYQTYDITDLLFQQKENKIEFLLGKGWYIGKFGLDGCEKIFGDEMMLIAEIRVEYFDGRIEVICTDDNWKYKGSDIEDSGIYFGEKINRQLWDDRQNLWKQAVKKKQKTPLKERYSLPLTVKEDIVPVKIIHTPIGETVLDVGQNMVGYMEFFADFPKGTRIKIECGEILQHGNFCHDNYTIAESTFEYISDGRKETVRPHFTYMGFRYLRVTGWPNEIKLGDIKCRVIYSDLQRTGFCKTQNSMLNQLYENCIWSQKSNFVDMPTDCPQRGERLGWTGDAQVFAATACYNMDTRAFYRKYLRDIRSHQLRKNGAIPNFIPDLGTFSEACSIWGDAATILPYQIYQSYGCAEEIRSYYTTMKDWVEYMVSMDESQGRHYKFQPGFQFGDWLALDGITEQSLKGSTDDNYIGCCYYYHSVKITSEIAQVLGYTEDAQRYQELSGKIRKAILNEYFTPKGRLSVDTQTAYIIALKFGLYNNKNVLIQQFKERLTRDCYKIKCGFAGTPLLCSVLGENGMEDIAYRILLNKDYPGWLYCVNLGATTVWERWNSVLSDGMLSGTGMNSLNHYAYGSVVQYFYEYIAGIRPKRPGFKEAFIEPKPDIRIQGVMCSYDSAMGVYKSEWKIQENGLICIHIEIPFNCTADVLLPEYSSNGLTYSDNVNGEMISENGKLQLCSGKYDFAYFPKNDYRHVYKPESILGDLREDKEALEILEKNIPVLYEIIQSNDIENMLITLQEFDTLHFMGIDPEIADETRKKIYNLNYYGK | 4.625% | 3.009% | 2.476% | 0.18 |
